What was measured:
[1] = biological target: full-length human TIGIT on the cell membrane (human) (UniProt Q495A1); assay: cell-based or functional assay
[2] = biological target: T1, mouse IL2R on CTLL-2 cells (mouse, UniProt P01590 22-268); assay: cell-based or functional assay
T1 sequence (looked up): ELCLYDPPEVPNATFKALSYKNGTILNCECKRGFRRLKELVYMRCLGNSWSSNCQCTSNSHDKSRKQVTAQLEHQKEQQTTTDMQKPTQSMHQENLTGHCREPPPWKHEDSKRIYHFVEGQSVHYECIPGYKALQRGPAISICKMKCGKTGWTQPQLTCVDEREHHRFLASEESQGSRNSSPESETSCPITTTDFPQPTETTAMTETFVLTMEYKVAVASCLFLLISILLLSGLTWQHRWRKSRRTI

[3] = biological target: T2, recombinant IL2Rβ subunit (Sinobio) (UniProt P14784 27-239); assay: BLI, recombinant IL2Rβ subunit
T2 construct: also called IL2β subunit
T2 sequence (looked up): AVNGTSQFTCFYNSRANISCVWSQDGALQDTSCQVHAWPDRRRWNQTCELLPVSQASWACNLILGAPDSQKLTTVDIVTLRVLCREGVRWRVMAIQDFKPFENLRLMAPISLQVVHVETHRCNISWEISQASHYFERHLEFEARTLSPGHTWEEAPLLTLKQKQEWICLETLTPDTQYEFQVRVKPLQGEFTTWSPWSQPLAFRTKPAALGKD

[4] = biological target: T3, IL2Rαγ (dimer) on 293F cells (human, UniProt P01589 22-272; P31785 23-369); assay: flow cytometry on 293F cells expressing IL2Rαγ
T3 construct: whole, on cells
T3 sequence (looked up) 1: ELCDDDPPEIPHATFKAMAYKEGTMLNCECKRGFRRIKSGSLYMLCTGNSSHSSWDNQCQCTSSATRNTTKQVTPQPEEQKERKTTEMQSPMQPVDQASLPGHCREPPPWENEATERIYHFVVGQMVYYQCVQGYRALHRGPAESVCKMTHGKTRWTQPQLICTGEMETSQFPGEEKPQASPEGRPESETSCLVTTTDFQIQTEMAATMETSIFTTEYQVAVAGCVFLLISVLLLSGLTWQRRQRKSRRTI
T3 sequence (looked up) 2: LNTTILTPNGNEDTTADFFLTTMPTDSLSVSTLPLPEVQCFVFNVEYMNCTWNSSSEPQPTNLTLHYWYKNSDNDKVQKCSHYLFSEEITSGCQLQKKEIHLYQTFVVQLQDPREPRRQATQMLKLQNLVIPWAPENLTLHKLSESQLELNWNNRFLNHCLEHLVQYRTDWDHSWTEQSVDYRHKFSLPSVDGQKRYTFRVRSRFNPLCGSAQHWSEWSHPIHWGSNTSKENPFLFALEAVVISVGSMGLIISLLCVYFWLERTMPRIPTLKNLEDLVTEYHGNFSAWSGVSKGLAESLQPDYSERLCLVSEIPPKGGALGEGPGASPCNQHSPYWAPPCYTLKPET
From the text: First, human IL2Rα, IL2Rβ, and IL2Rγ expression plasmids (Sinobio) were co-transfected into 293F cells to transiently express the following IL2R complexes: IL2Rαβγ (trimer), IL2Rαγ (dimer), and IL2Rβγ (dimer). The expression of the respective IL2R subunits on the cell membrane was detected using antibodies against IL2Rα, IL2Rβ, and IL2Rγ.
Then, the binding activity of KD5201F, KD5201E, and control protein-1 to the 293F cells expressing the two types of IL2R complexes (αγ and βγ) was detected using flow cytometry.

mouse TIGIT = biological target: T4, mouse TIGIT (mouse, UniProt P86176 29-148, limits assumed); assay: not described
T4 sequence (looked up): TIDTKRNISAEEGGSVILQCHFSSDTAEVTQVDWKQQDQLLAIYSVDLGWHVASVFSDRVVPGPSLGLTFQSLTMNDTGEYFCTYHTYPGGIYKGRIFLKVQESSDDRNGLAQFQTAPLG

[5] = biological target: T5, recombinant human TIGIT (Human TIGIT His, Sino Biological, 10917-H08H) (human, UniProt Q495A1 22-138); assay: ELISA, recombinant human TIGIT-His coated
T5 construct: range 1-138; Bought reagent; also called recombinant human TIGIT antigen; recombinant human TIGITE-HIS; not shown: C-terminal histidine tag
T5 sequence (looked up): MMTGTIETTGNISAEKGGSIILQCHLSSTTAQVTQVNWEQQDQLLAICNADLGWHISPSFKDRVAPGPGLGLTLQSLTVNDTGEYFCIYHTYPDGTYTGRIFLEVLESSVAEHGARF
Description: The activity of TIGIT antibody-IL2 fusion protein binding TIGIT of the present disclosure in vitro was detected using ELISA. The ELIS was conducted as follows: coated with 50 μl of NaHCO₃(pH9.6) buffer containing […] recombinant human TIGITE-HIS overnight at 4° C.; on the next day, washed twice with PBS, followed by blocking with 3% BSA, 100 μL per well; incubated at 37° C. for 1.5h, and washed with PBST for 4 times. TIGIT antibody-IL2 fusion protein was diluted in a gradient with a binding solution (TBST containing 1% BSA), and added into the blocked and washed ELISA plate (50 μl per well), and incubated at 37° C. for 2 h. After washing with PBST for 4 times, a certain proportion of diluted anti-HFC (Jackson Immuno Research) labeled with alkaline phosphatase was added to each well and incubated at 37° C. for 1.5h. Finally, after washing with PBST for 4 times, PNPP color developing solution was added and incubated at 37° C. for 10-15 min, followed by reading on a microplate reader (wavelengths 405 nm and 490 nm). Human TIGIT monoclonal antibody P03479 was used as positive control.

[6] = biological target: T6, full-length human TIGIT on the cell membrane (human, UniProt Q495A1 22-244); assay: flow cytometry on CHO-K cells expressing human TIGIT
T6 construct: whole, on cells; the cell is named under assay or readout; also called CHO-K-TIGIT; CHO-TIGIT
T6 sequence (looked up): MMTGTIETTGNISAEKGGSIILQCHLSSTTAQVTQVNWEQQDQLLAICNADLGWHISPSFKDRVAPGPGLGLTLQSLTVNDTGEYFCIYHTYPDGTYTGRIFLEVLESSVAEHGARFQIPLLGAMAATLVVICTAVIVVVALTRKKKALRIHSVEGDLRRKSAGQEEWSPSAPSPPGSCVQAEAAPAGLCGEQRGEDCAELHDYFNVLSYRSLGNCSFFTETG
Description: The flow cytometry method to study the binding of TIGIT antibodies to TIGIT protein on the cell membrane is briefly described as follows: Firstly, FACS buffer was prepared, which was a 1×PBS solution with 0.5% BSA. The required number of CHO-K-TIGIT cells, approximately 1×10⁵ to 5×10⁵ cells per sample, was taken and suspended in FACS buffer. […] The cells were incubated in a refrigerator at 4° C. for 30 minutes, washed once with FACS buffer, and then resuspended in FITC-conjugated anti-human IgG (Abcam: 6854) diluted in FACS buffer. The cells were incubated again in a refrigerator at 4° C. for 30 minutes. Finally, after washing the cells with FACS buffer, the cells were resuspended in 200 μL of FACS buffer for analysis, and subjected to detection.

[7] = biological target: T6, full-length human TIGIT on the cell …; assay: flow cytometry on Jurkat cells expressing human TIGIT
Description: The binding activity of the anti-TIGIT antibody-IL2 fusion proteins to TIGIT on the cell membrane was tested using flow cytometry. A Jurkat cell line stably expressing human TIGIT was first established. The full-length human TIGIT gene (Sinobio) was amplified by PCR and cloned into the mammalian cell expression vector pcDNA3.1 (Invitrogen), using Not I and Xba I as cloning enzymes. The TIGIT expression plasmid was transfected into Jurkat cells to construct a stable Jurkat cell line expressing TIGIT (TIGIT-Jurkat).
The flow cytometry study method for the binding of TIGIT antibody-IL2 fusion proteins to cell membrane-bound TIGIT is summarized as follows: FACS buffer (1×PBS+0.5% BSA solution) was prepared. The required number of TIGIT-Jurkat cells, about 1×10⁵ to 5×10⁵ cells per sample, was taken and incubated with TIGIT antibody-IL2 fusion protein diluted to a certain ratio in FACS buffer, approximately 100 μL, at 4° C. for 30 minutes. After washing the cells once with FACS buffer, they were resuspended in FITC-conjugated anti-human IgG (Abcam: 6854) diluted in FACS buffer and incubated at 4° C. for 30 minutes. Finally, after washing the cells with FACS buffer, they were resuspended in 200 μL of FACS buffer for analysis. The parent TIGIT antibody P03479 was used as a control.
The results were consistent with those obtained by binding recombinant TIGIT in vitro (Example 6).

[8] = biological target: T5, recombinant human TIGIT (Human TIGIT …); assay: competition ELISA, TIGIT-His coated, competitor CD155-mFC
Description: To determine whether human-mouse chimeric and humanized TIGIT monoclonal antibodies can inhibit the binding between CD155 and TIGIT, an in vitro ELISA assay was conducted. Tiragolumab was used as a positive control. […] The next day, after washing twice with PBS, the wells were blocked with 3% BSA, 100 μL per well, and incubated at 37° C. for 1.5 hours, followed by washing 4 times with PBST. Gradient diluted TIGIT monoclonal antibodies and CD155-mFC (6 μg/mL) (Human CD155 (Fc Tag): Sino Biological, 10109-H02H) were mixed in equal volumes and added to the blocked and washed microplate and incubated at 37° C. for 2 hours, followed by 4 washes with PBST. Subsequently, a diluted secondary antibody HRP-conjugated anti-mFC (Jackson Immuno Research, 115-035-164) was added and incubated at 37° C. for 1.5 hours. After washing 4 times with PBST, TMB coloring solution was added, and the plate was incubated at 37° C. for 10-15 minutes before reading on a microplate reader (wavelengths 450 nm and 655 nm).
As shown, all TIGIT monoclonal antibodies could specifically block the binding between TIGIT and CD155.

Q: Tiragolumab (antibody) was tested. Which IFNγ release from PHA-activated PBMCs, increase over the blank [1] did it give?
A: Its IFNγ release from PHA-activated PBMCs, increase over the blank is 16%.

B1: KD5201E, HC(DANG)-IL2mut-1/LC(ART-Ig) anti-TIGIT antibody-IL2 fusion protein (other)
heavy 1: EVQVVESGGGLVKPGGSLRLSCAASGFTFSTYAMSWVRQAPGKGLEWVAEISSGGSHTFYADTVKGRFTISRDNAKNTLYLQMNSLRAEDTAVYYCARKTLDYYALDYWGQGTTVTVSSASTKGPSVFPLAPSSKSTSGGTAALGCLVKDYFPEPVTVSWNSGALTSGVHTFPAVLQSSGLYSLSSVVTVPSSSLGTQTYICNVNHKPSNTKVDKKVEPKSCDKTHTCPPCPAPELLGGPSVFLFPPKPKDTLMISRTPEVTCVVVAVSHEDPEVKFNWYVDGVEVHNAKTKPREEQYGSTYRVVSVLTVLHQDWLNGKEYKCKVSNKALPAPIEKTISKAKGQPREPQVYTLPPSRKEMTKNQVSLTCLVKGFYPSDIAVEWESNGQPENNYKTTPPVLDSDGSFFLYSKLTVDKSRWQQGNVFSCSVMHEALHNRYTQKSLSLSPGGGGGSGGGGSGGGGSAPTSSSTKKTQLQLEHLLLDLQMILNGINNYKNPKLTRMLTAKFYMPKKATELKHLQCLEEELKPLEEVLNLAQSKNFHFDPRDVVSNINVFVLELKGSETTFMCEYADETATIVEFLNRWITFCQSIISTLT
heavy 2: EVQVVESGGGLVKPGGSLRLSCAASGFTFSTYAMSWVRQAPGKGLEWVAEISSGGSHTFYADTVKGRFTISRDNAKNTLYLQMNSLRAEDTAVYYCARKTLDYYALDYWGQGTTVTVSSASTKGPSVFPLAPSSKSTSGGTAALGCLVKDYFPEPVTVSWNSGALTSGVHTFPAVLQSSGLYSLSSVVTVPSSSLGTQTYICNVNHKPSNTKVDKKVEPKSCDKTHTCPPCPAPELLGGPSVFLFPPKPKDTLMISRTPEVTCVVVAVSHEDPEVKFNWYVDGVEVHNAKTKPREEQYGSTYRVVSVLTVLHQDWLNGKEYKCKVSNKALPAPIEKTISKAKGQPREPQVYTLPPSREEMTKNQVSLTCLVKGFYPSDIAVEWESNGQPENNYKTTPPVLDSDGSFFLYSKLTVDKSRWQQGNVFSCSVMHEALHNHYTQESLSLSPG
light: DVQITQSPSYLSASVGDRVTINCRASKSISKYLAWYQQKPGKAPKLLIYSGSRLQSGIPSRFSGSGYGTDFTLTISSLQPEDFATYYCQQHNEYPWTFGGGTKLEIKRTVAAPSVFIFPPSDEQLKSGTASVVCLLNNFYPREAKVQWKVDNALQSGNSQESVTEQDSKDSTYSLSSTLTLSKADYEKHKVYACEVTHQGLSSPVTKSFNRGEC
notes: IL2mut-1 = F42A/L80F/R81D/L85V/I86V/I92F on the C-terminus of one heavy chain; Fc with D265A/N297G; also called HC1(DANG)-IL2mut/LC1(ART-Ig); HC1-IL2mut/LC1 (ART-Ig)
Q: What does the source list for B1?
A: EC50 of stimulating CTLL-2 cell growth (CCK-8) [2]: 0.0153 µg/mL; Kd [3]: ~8.2 nM; binding result [4]: binds

B2: humanized anti-human TIGIT monoclonal antibody P03479 (7103-07 huVH2VL1) (antibody, V domains shown)
VH: EVQVVESGGGLVKPGGSLRLSCAASGFTFSTYAMSWVRQAPGKGLEWVAEISSGGSHTFYADTVKGRFTISRDNAKNTLYLQMNSLRAEDTAVYYCARKTLDYYALDYWGQGTTVTVSS
VL: DVQITQSPSYLSASVGDRVTINCRASKSISKYLAWYQQKPGKAPKLLIYSGSRLQSGIPSRFSGSGYGTDFTLTISSLQPEDFATYYCQQHNEYPWTFGGGTKLEIK
notes: The constant region is described as IgG1 gamma in the embodiments; also called parent TIGIT antibody P03479
Q: Does B2 bind (mouse TIGIT)?
A: Result: no binding

Q: And the EC50 [5]?
A: Its EC50 is 0.0184 µg/mL.

Q: What about the EC50 [6] of the same molecule?
A: The EC50 was 0.144 µg/mL.

Q: What about the EC50 [7] of the same molecule?
A: The EC50 was 0.0315 µg/mL.

Q: What about the IC50 [8] of the same molecule?
A: The IC50 was 0.107 µg/mL.

Reference: patent publication US20250333507A1 (SHANGHAI CELGEN BIO PHARMACEUTICAL, published 2025)
